Laboratory results: PMC1891289, “Improvement of activity and stability of chloroperoxidase by chemical modification” (BMC Biotechnology, 2007)

Experiments:
purified protein [1] = substrate: CSc1ccccc1; experiment: purified protein; type: biochemical, Leptoxyphium fumago; conditions: 50 mM sodium citrate pH 5.0, 300 μM H2O2, room temperature, apparent, native enzyme
purified protein [2] = substrate: Oc1ccccc1; experiment: purified protein; type: biochemical, Leptoxyphium fumago; conditions: 50 mM sodium citrate pH 5.0, 0.2 mM H2O2, 2.4 mM 4-aminoantipyrine, 30 °C in methods (room temperature in text), apparent, native enzyme

B1: Chloroperoxidase (CPO) (Leptoxyphium fumago) (protein)
chain: QEPGSGIGYPYDNNTLPYVAPGPTDSRAPCPALNALANHGYIPHDGRAISRETLQNAFLNHMGIANSVIELALTNAFVVCEYVTGSDCGDSLVNLTLLAEPHAFEHDHSFSRKDYKQGVANSNDFIDNRNFDAETFQTSLDVVAGKTHFDYADMNEIRLQRESLSNELDFPGWFTESKPIQNVESGFIFALVSDFNLPDNDENPLVRIDWWKYWFTNESFPYHLGWHPPSPAREIEFVTSASSAVLAASVTSTPSSLPSGAIGPGAEAVPLSFASTMTPFLLATNAPYYAQDPTLGPND
notes: not chemically modified
With B1 the Km (purified protein [1]) was 1.64 ± 0.09 mM and the Km (purified protein [2]) was 0.35 ± 0.01 mM.
